Measured values published in the supplement of paper PMC10126150.
± gives the standard deviation of the averaged measurements.

Test system: ATP
Test: switch fluorescence ratio, 500 uM ATP over buffer (Cy3 cluster intensity, sum of 5 cycles each) (fold (ratio)); higher = stronger signal-on switching upon ATP binding; sequences stand for … in TCGTCGGCAGCGTCAGATGTGTATAAGAGACAGTTTTTTTTTTTTTTTTTTTTTTTTT…TC
Conditions: aptamer strand: ATP DNA aptamer (quencher-CACCTGGGGGAGTATTGCGGAGGAAGG + anchor), 100 nM annealed; ATP concentration: 500 uM
In short: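 After annealing to 100 nM quencher-labelled ATP aptamer, Cy3-labelled switching-strand clusters on a modified Illumina MiSeq flow-cell were imaged in selection buffer. A second image followed after 15 min with 500 uM ATP at 22 °C, and five such buffer/ATP cycles were done, each separated by NaOH stripping and re-annealing. The fluorescence ratio, averaged per switch-domain sequence, is summed target-cycle over summed buffer-cycle Cy3 intensity per cluster, with clusters outside 100-1000 RFU excluded.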
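Also: ATP exposure 15 min at 22 °C before imaging.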

Sequence	switch fluorescence ratio
CCCGGGGTCT	1.02 ± 0.026
CCCGGGTCGC	1.05 ± 0.012
CCCGGTACGG	1.029 ± 0.0017
CCCGGTGTGT	1.65 ± 0.025
CCCGGTTGAT	1.047 ± 0.0074
CCCGTATACT	3.22 ± 1.6
CCCGTCAGCG	1.02 ± 0.041
CCCGTGCTTC	1.07 ± 0.063
CCCGTGGAAA	1.09 ± 0.1
CCCTCCTTG	1.0791 ± 6.3e-05
CCCTGGCAGC	1.3 ± 0.019
CCCTTAGGGA	1.02 ± 0.026
CCCTTGATAC	2.24 ± 0.1
CCCTTTAGGG	1.025 ± 0.0025
CCGAAAAGAT	1.44 ± 0.59
CCGAAAGCCG	1.11 ± 0.024
CCGAAATGGG	1.5 ± 0.07
CCGAACTTTT	1.07 ± 0.075
CCGAAGAGTC	1.66 ± 0.28
CCGAATTGTA	1.03 ± 0.016
CCGACCAGGG	1.3 ± 0.13
CCGACTAAAA	4.27 ± 0.41

Sequence	switch fluorescence ratio
CCGAGAAAAA	1.12 ± 0.14
CCGAGAATCG	1.02 ± 0.036
CCGAGCGGGA	1.77 ± 0.37
CCGAGGGGGT	1.81 ± 1.1
CCGATGGGCC	1.22 ± 0.028
CCGATTGTGT	1.11 ± 0.017
CCGCAGAGTG	3.98 ± 2.1
CCGCCAGGTC	2.55 ± 0.13
CCGCCTTGGG	1.09 ± 0.029
CCGCGACGGG	1.69 ± 0.48
CCGCGCCGAT	1.37 ± 0.16
CCGCGGGGTG	2.2 ± 0.77
CCGCGGGTTT	1.08 ± 0.075
CCGCGTCGCT	1.317 ± 0.0055
CCGCTAGGGC	2.1 ± 1.2
CCGCTTCCGG	1.08 ± 0.018
CCGGAAGACG	1.39 ± 0.18
CCGGAAGAGA	1.09 ± 0.035
CCGGACCAGA	1.15 ± 0.057
CCGGACTATC	2.4 ± 0.086
CCGGACTTGG	0.96 ± 0.09
CCGGATTAA	1.02 ± 0.039

Sequence	switch fluorescence ratio
CCGGCGCGTT	1.96 ± 1.3
CCGGCGGGCT	1.05 ± 0.013
CCGGCGGTTG	1 ± 0.012
CCGGCTTACG	1.2 ± 0.1
CCGGGAGGAT	0.987 ± 0.035
CCGGGAGTTA	1.15 ± 0.034
CCGGGCGACA	1.11 ± 0.031
CCGGGCGGGG	1.07 ± 0.018
CCGGGCGTA	1.15 ± 0.083
CCGGGGAAGG	1.04 ± 0.0092
CCGGGGGAGG	1.06 ± 0.048
CCGGGGGGAA	1.03 ± 0.063
CCGGGGGGCG	0.976 ± 0.053
CCGGGGGGTT	1.09 ± 0.14
CCGGGGTACA	1.17 ± 0.17
CCGGGGTGTG	1.08 ± 0.012
CCGGGTTAGT	1.06 ± 0.017
CCGGGTTGTA	1.02 ± 0.046
CCGGGTTTGG	0.984 ± 0.017
CCGGGTTTTG	1.017 ± 0.0016
CCGGTAGGGA	1.01 ± 0.021
CCGGTCTGGC	1.01 ± 0.013

Sequence	switch fluorescence ratio
CCGGTCTTTT	0.961 ± 0.018
CCGGTGACGA	1.053 ± 0.0041
CCGGTGGGGT	1.01 ± 0.03
CCGGTGTGCC	1.01 ± 0.052
CCGGTTCATT	1.0368 ± 0.00072
CCGGTTTGGG	0.988 ± 0.042
CCGTAACGGG	1.09 ± 0.085
CCGTAATATT	3.69 ± 1.8
CCGTAATGGG	1.85 ± 0.038
CCGTAGAATT	1.68 ± 0.046
CCGTATAGCT	1.24 ± 0.039
CCGTCTCTCC	1.73 ± 0.093
CCGTGATATG	2.492 ± 0.0084
CCGTGATGGG	1.14 ± 0.066
CCGTGCACAT	2.679 ± 0.0035
CCGTGCTCTA	1.281 ± 0.0015
CCGTGGAAAG	1.02 ± 0.027
CCGTGGCGCA	1.88 ± 0.21
CCGTGGTAGG	1.01 ± 0.018
